# Source: publication doi:10.1101/2024.10.11.617910
# Columns and labels:
# beta-amyloid 42 peptide = beta-amyloid 42 peptide (UniProt P05067); test: SiMoA
# [1] = target: pyroglutamate beta-amyloid peptide (pGlu3-Aβ); test: SiMoA
limit of detection (LoD) (beta-amyloid 42 peptide),limit of detection (LoD) [1],Substance
200 pM,56 pM,Aducanumab (antibody)
,5 pM,Donanemab (antibody)
